Results published in the supplement of paper PMC10567573.

B1: RHOBTB3 (parent)
chain: GGADIIVIKYNVNDKFSFHEVKDN

Variants of: B1
Assay: protein stability index of a GFP-peptide fusion (GPS, HEK-293T) (PSI 1-6); higher = more stable
Conditions: c terminus: a fixed tail appended
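Further: lentivirally expressed fusions sorted by FACS into six bins by GFP to DsRed ratio, PSI derived from sequencing read proportions per bin multiplied by bin number.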

Protein stability index: each site, then its substitutions
H19: S 2.72, D 1.95, A 2.27, I 1.54, F 3.33
D23: C 2.08, H 3.28, A 2.71
G2: D 2.31, C 1.97, S 1.62, Y 2.69, V 1.64
V21: F 3.01, D 1.3, T 1.46, C 1.96, Y 2.98, S 2.5, G 3.4, N 1.66, W 2.15
V12: I 3.31, N 2.66, E 1.72, M 2.67, W 3.56
S17: Y 1.63, E 2.94, K 3.18, T 2.25, V 1.73, P 2.54, G 2.54, I 2.65, Q 2.36
F16: A 2.24, H 1.53, G 2.74, D 2.07, L 1.63, V 1.98, Y 2.62
D14: H 2.94, E 2.8, S 3.4, G 1.72, R 2.36, Y 3.38, M 1.62
K9: R 2.33, W 3.44, Y 2.89, C 2.65, H 3.31, T 2.97
N24: I 2.21, H 2.14, A 2.09, G 3, K 2.73, D 1.94, T 4.04
K22: N 2.1, M 2.35, F 4.16, G 2.76, A 2.89, C 2.88, R 2.61, S 2.52
A3: M 2.03, H 3.04, Q 2.73, F 3.37, P 2.35, W 2.05, K 2.65
I6: E 3.74, V 1.77, F 1.5, N 3.83, L 3.33, S 3.63, W 1.79, P 4.12, D 4.07
I5: M 2.68, H 2.39, C 1.74, N 3.69, R 2.34, K 2.67, Y 1.78, L 3.18, G 2.82, Q 3.45
E20: V 2.1, I 2.61
N11: F 1.97, R 2.45, S 2.23, D 2.29, A 2.36, Q 3.46, I 2.24, T 2.43
N13: L 2.87, V 3.83, E 2.71, F 3.47, K 2.92, H 2.57, A 3.68, Y 1.67, D 1.88, T 1.57
I8: Q 3.48, P 1.32, S 3.71, M 1.89, N 4.41, W 2.04, D 3.81, H 3.35, E 4.25
V7: L 2.3, P 4.13, N 2.85, G 2.5, E 3.28, R 1.67
K15: F 2.8, G 4.47, S 2.73, C 4.37, Q 2.13, P 2.59, E 2.03
G1: N 2.96, Y 2.04, H 2.3, T 2.99, A 2.07, C 2.27, W 1.54
D4: H 2.21, W 2.41, L 1.8, G 3.68, K 4.09, T 3.79
Y10: V 3.23, S 1.88, A 1.27, L 3.82, N 2.03, W 3.26, Q 1.62
F18: D 2.26, R 4.04, I 1.95, N 1.39, K 1.78, Y 2.72, Q 1.99, P 1.95
